Measured values as given in paper PMC12719470 (Frontiers in Immunology, 2025).
Residue numbers refer to the chain shown, from its start.

B1: Nanobody-161 IgG1 (VHH)
VHH: EVQLVESGGGLVQPGGSLRLSCAASGSIRFINDMGWYRQAPGKGLELVAAIGRGGGSTNYADSVKGRFTISRDNAKNTLYLQMNSLRAEDTAVYYCHAEISQLGYAFRDYWGQGTLVTVSS
notes: also called WT; source: ExpiCHO, purified (MabSelect SuRe LX)
B2: Nanobody-161 IgG1 F30G (VHH)
VHH: B1 VHH with F30G
notes: as the VHH of Wm1, with the stated change
B3: Nanobody-161 IgG1 R108A (VHH)
VHH: B1 VHH with R108A
notes: as for B2
B4: Nanobody-161 IgG1 R53A (VHH)
VHH: B1 VHH with R53A
notes: as for B2
B5: Nanobody-161 IgG1 Q102A (VHH)
VHH: B1 VHH with Q102A
notes: as for B2
B6: Nanobody-161 IgG1 L103G (VHH)
VHH: B1 VHH with L103G
notes: as for B2
B7: Nanobody-161 IgG1 R29A (VHH)
VHH: B1 VHH with R29A
notes: as for B2
B8: Nanobody-161 IgG1 S101A (VHH)
VHH: B1 VHH with S101A
notes: as for B2
B9: TNFR2-His protein (receptor, UniProt P20333 23-461, looked up)
chain: APEPGSTCRLREYYDQTAQMCCSKCSPGQHAKVFCTKTSDTVCDSCEDSTYTQLWNWVPECLSCGSRCSSDQVETQACTREQNRICTCRPGWYCALSKQEGCRLCAPLRKCRPGFGVARPGTETSDVVCKPCAPGTFSNTTSSTDICRPHQICNVVAIPGNASMDAVCTSTSP
notes: TNFR2-His protein used as analyte in BLI; also called histidine-tagged TNFR2

molecular target: T1, TNFR2-His protein (Homo sapiens, UniProt P20333); assay: BLI; 30 nM Nanobody-161 IgG1 or mutant immobilised on Protein A biosensors (Gator); 4800 nM-300 nM TNFR2-His in Q Buffer (PBS, 0.02% Tween 20, 0.2% BSA); 25 °C; association 120 s, dissociation 180 s; global 1:1 Langmuir fit; conditions: both partners purified
T1 construct: Tumor necrosis factor receptor 2 (TNFR2), human; The BLI methods say only 'TNFR2-His protein'; It may be the E. coli ectodomain (residues 33-205, purified on a nickel column) or a bought protein (Sino Biological 10417-H03H); neither the source nor the species is named for this experiment; also called histidine-tagged TNFR2
T1 sequence (P20333 23-461): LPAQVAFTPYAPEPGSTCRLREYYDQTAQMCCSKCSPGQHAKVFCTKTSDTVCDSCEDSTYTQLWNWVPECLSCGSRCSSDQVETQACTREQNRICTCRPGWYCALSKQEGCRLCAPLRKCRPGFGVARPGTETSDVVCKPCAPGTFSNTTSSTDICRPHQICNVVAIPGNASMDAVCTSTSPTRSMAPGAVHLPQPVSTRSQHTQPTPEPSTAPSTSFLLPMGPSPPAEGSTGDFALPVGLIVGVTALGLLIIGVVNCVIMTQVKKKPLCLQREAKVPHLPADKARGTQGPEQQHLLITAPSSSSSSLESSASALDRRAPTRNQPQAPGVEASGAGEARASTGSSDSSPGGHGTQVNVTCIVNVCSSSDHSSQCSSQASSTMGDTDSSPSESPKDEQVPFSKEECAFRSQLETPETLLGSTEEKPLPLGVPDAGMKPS

| Kd | koff | kon | Binder |
| --- | --- | --- | --- |
| 81.5 nM | 0.000276 s⁻¹ | 3390 M⁻¹ s⁻¹ | B1 |
| 3780 nM | 0.0126 s⁻¹ | 3340 M⁻¹ s⁻¹ | B2 |
| 186 nM | 0.000877 s⁻¹ | 4730 M⁻¹ s⁻¹ | B3 |
| 79.5 nM | 0.000321 s⁻¹ | 4030 M⁻¹ s⁻¹ | B4 |
| 212 nM | 0.000699 s⁻¹ | 3290 M⁻¹ s⁻¹ | B5 |
| 976 nM | 0.00382 s⁻¹ | 3920 M⁻¹ s⁻¹ | B6 |
| 631 nM | 0.002 s⁻¹ | 3170 M⁻¹ s⁻¹ | B7 |
| 1720 nM | 0.00926 s⁻¹ | 5370 M⁻¹ s⁻¹ | B8 |

molecular target: T2, Nanobody-161 IgG1; assay: BLI; Gator system, 25 °C; 30 nM Nanobody-161 IgG1 or mutant immobilised on Protein A biosensors for 120 s; 4800 nM-300 nM TNFR2-His in Q Buffer (PBS, 0.02% Tween 20, 0.2% BSA); association 120 s, dissociation 180 s; global 1:1 Langmuir fit; conditions: both partners purified
T2 construct: CDR1 26-35, CDR2 50-59, CDR3 99-110); 78 kDa, called bivalent in the discussion; The methods nonetheless speak of heavy-chain and light-chain plasmids; source: ExpiCHO, transfected, purified from conditioned medium (MabSelect SuRe LX)

| binding result | Binder |
| --- | --- |
| binds | B9 |

molecular target: T3, Nanobody-161 IgG1 R29A; assay: as above; conditions: both partners purified
T3 construct: as the chain of m1 with the stated change

| binding result | Binder |
| --- | --- |
| binds | B9 |

molecular target: T4, Nanobody-161 IgG1 R53A; assay: as above; conditions: both partners purified
T4 construct: as the chain of m1 with the stated change

| binding result | Binder |
| --- | --- |
| binds | B9 |

molecular target: T5, Nanobody-161 IgG1 Q102A; assay: as above; conditions: both partners purified
T5 construct: as the chain of m1 with the stated change

| binding result | Binder |
| --- | --- |
| binds | B9 |

molecular target: T6, Nanobody-161 IgG1 F107G; assay: as above; conditions: both partners purified
T6 construct: as the chain of m1 with the stated change

| binding result | Binder |
| --- | --- |
| binds | B9 |

molecular target: T7, Nanobody-161 IgG1 R108A; assay: as above; conditions: both partners purified
T7 construct: as the chain of m1 with the stated change

| binding result | Binder |
| --- | --- |
| binds | B9 |
